This assay has as its target NpuN (cysteine-free, C.F.), N-terminal Npu DnaE intein segment with His tag and three C-terminal cysteines, coupled to SulfoLink resin (Nostoc punctiforme). Nature of the assay: cell-based or functional assay.

Regarding “NpuC^HN-SK^C, C-terminal intein segment with serine to histidine mutation fused to streptokinase with cysteine as +1 residue (from UniProt P00779 27-440)”, the cleaving percentage (C-terminal cleavage, SDS-PAGE), in solution, room temperature, pH 8.5, 1 hour was more than 50%.

(Values after patent publication US20200024370A1.)
